Assay results reported in patent publication US20040121386.

Tests used:
[1] = biological target: unactive JNK1 (Upstate, Inc.)

B1: His-tagged MKK7γ1 (protein)
chain: AASSLEQKLSRLEAKLKQENREARRRIDLNLDISPQRPRPIIVITLSPAPAPSQRAALQLPLANDGGSRSPSSESSPQHPTPPARPRHMLGLPSTLFTPRSMESIEIDQKLQEIMKQTGYPTIGGQRYQAEINDLENLGEMGSGTCGQVWKMRFRKTGHVIAVKQMRRSGNKEENKRILMDLDVVLKSHDCPYIVQCFGTFITNTDVFIAMELMGTCAEKLKKRMQGPIPERILGKMTVAIVKALYYLKEKHGVIHRDVKPSNILLDERGQIKLCDFGISGRLVDSKAKTRSAGCAAYMAPERIDPPDPTKPDYDIRADVWSLGISLVELATGQFPYKNCKTDFEVLTKVLQEEPPLLPGHMGFSGDFQSFVKDCLTKDHRKRPKYNKLLEHSFIKRYETLEVDVASWFKDVMAKTESPRTSGVLSQPHLPFFR
Question: For B1, which “phosphorylation in a two-step cascade kinase assay (γ-32P-ATP, SDS/PAGE, autoradiography)” value [1] is on record?
Answer: in turn was able to phosphorylate JNK1

Question: And the “phosphorylation in a two-step cascade kinase assay (γ-32P-ATP, SDS/PAGE, autoradiography)” value (unactive p38)?
Answer: MKK7γ1 was unable to phosphorylate p38
